Measured values as given in paper doi:10.1101/2021.02.11.430706.

How the values were obtained:
[1] = target: MtCNNMΔC R235L (Methanoculleus thermophilus); test: crystal structure
[2] = target: MtCNNMΔC_(Δloop) (Methanoculleus thermophilus CNNM, residues 1-322 Δ259-262) (Methanoculleus thermophilus); test: crystal structure

Row | stoichiometry N [1] | stoichiometry N [2] | Substance
1 | 2 | – | MtCNNMΔC R235L (domain or fragment)
2 | – | 2 | MtCNNMΔC_(Δloop) (Methanoculleus thermophilus CNNM, residues 1-322 Δ259-262) (domain or fragment)
